The text below walks through data of publication PMC9302186, “Defining variant-resistant epitopes targeted by SARS-CoV-2 antibodies: A global consortium study” (Science (New York, N.y.), 2021).

The assay concerns the target T1, SARS-CoV-2 spike trimer (as imaged by NS-EM) (SARS-CoV-2, ancestral (Wuhan-Hu-1, …, UniProt P0DTC2)).
T1 construct: also called spike trimers; spike protein
The experiment in a line: negative-stain electron microscopy. To be noted: both partners purified.

B1: CoVIC-259 (antibody, V domains shown)
VH: EVQLVESGGGVVQPGRSLRLSCAASGFTFSSYAMHWVRQAPGKGLEWVAVLSYDGSNKYNADSVKGRFTISRDNSKNTLYLQMNSLRVEDTAMYYCARDGVSVTMVRGVIGPLCDYWGQGTLVTVSS
VL: not shown
notes: also called RBD-1 community representative
On to B1, for which the binding result was “binds”.
